Data as given in patent publication US20150344570A1 (published 2015).

Assays:
[1] = biological target: T1, FcγRIIa R (FcγRIIa, allotype with Arg at position 131), extracellular domain with C-terminal His tag (human, UniProt P12318 34-217); test: SPR (Biacore), antibody captured on antigen peptide chip, FcγR as analyte; relative binding
T1 construct: extracellular domain; also called FcγRIIa R type; 2aR
T1 sequence (looked up): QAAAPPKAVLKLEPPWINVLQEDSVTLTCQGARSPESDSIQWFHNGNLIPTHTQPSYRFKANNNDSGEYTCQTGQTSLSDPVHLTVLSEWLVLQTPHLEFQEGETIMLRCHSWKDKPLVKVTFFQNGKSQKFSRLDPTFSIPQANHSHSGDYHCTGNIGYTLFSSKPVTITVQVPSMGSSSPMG
Experimental: Analysis of interaction between objective antibody and the FcγR was carried out using Biacore T100 (GE Healthcare). HBS-EP+ (GE Healthcare) was used as the running buffer, and the measurement temperature was set to 25° C. Chips produced by immobilizing the antigen peptide by the amine coupling method to a Series S Sencor Chip CM5 (GE Healthcare), or alternatively, chips produced by allowing preliminarily biotinylated antigen peptides to interact with and immobilize onto a Series S Sensor Chip SA (certified) (GE Healthcare) were used. Antibodies of interest were captured onto an antigen peptide-immobilized chip, and allowed to interact to each FcγR diluted with running buffer. To regenerate and repeatedly use the chip, the antibodies captured on the chip were washed off by reacting 10 mM glycine-HCl, pH 1.5.

[2] = biological target: T2, FcγRIIb extracellular domain with C-terminal His tag (human, UniProt P31994 43-217); test: SPR (Biacore), relative binding
T2 construct: extracellular domain; also called FcgRIIb; 2b
T2 sequence (looked up): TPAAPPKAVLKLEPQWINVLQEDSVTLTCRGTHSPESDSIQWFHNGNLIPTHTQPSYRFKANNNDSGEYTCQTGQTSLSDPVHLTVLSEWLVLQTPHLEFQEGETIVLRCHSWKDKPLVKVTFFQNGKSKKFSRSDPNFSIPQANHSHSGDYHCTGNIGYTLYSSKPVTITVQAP

B1: GpH7-B3 variant S337_02A/GpL16-k0 (antibody, human IgG1, kappa)
heavy: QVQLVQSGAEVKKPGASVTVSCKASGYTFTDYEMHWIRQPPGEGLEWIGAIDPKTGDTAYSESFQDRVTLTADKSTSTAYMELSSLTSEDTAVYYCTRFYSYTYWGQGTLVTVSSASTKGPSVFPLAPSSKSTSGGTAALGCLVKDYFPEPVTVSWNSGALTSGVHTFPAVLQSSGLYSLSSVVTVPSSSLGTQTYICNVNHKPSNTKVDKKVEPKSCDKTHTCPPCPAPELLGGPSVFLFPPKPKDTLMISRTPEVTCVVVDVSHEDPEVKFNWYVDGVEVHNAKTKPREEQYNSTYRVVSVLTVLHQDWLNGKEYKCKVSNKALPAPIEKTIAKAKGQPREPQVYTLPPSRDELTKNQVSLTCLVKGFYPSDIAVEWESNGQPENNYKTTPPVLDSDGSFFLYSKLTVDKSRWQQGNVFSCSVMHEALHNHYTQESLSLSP
light: DIVMTQSPLSLPVTPGEPASISCQASESLVHSNRNTYLHWYLQKPGQSPQLLIYKVSNRFSGVPDRFSGSGSGTDFTLKISRVEAEDVGVYYCSQNTHVPPTFGQGTKVEIERTVAAPSVFIFPPSDEQLKSGTASVVCLLNNFYPREAKVQWKVDNALQSGNSQESVTEQDSKDSTYSLSSTLTLSKADYEKHKVYACEVTHQGLSSPVTKSFNRGEC
notes: also called Ho Ab
**Q.** B1 was tested. Which Ho/Con_2aR [1] did it give?
**A.** The Ho/Con_2aR was 102 % of GpH7-B3/GpL16-k0 (=100).

B2: GpH7-B3 variant S239_08L/GpL16-k0 (antibody, human IgG1, kappa)
heavy: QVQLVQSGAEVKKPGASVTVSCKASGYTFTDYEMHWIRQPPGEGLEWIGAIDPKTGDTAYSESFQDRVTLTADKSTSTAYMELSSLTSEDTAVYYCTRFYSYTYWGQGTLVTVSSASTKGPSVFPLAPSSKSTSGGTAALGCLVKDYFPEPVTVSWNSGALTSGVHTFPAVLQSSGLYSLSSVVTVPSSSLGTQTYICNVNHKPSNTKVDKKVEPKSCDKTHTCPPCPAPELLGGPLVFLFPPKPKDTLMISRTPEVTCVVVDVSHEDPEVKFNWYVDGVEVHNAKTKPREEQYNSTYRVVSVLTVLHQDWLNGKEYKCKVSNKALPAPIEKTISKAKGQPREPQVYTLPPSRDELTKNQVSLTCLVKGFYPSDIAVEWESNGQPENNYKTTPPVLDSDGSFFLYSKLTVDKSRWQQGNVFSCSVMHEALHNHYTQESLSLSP
light: B1 light
notes: also called Ho Ab
**Q.** For B2, which Ho/Con_2aR [1] is on record?
**A.** Its Ho/Con_2aR is 106 % of GpH7-B3/GpL16-k0 (=100).

B3: GpH7-B3 variant S267_09D/GpL16-k0 (antibody, human IgG1, kappa)
heavy: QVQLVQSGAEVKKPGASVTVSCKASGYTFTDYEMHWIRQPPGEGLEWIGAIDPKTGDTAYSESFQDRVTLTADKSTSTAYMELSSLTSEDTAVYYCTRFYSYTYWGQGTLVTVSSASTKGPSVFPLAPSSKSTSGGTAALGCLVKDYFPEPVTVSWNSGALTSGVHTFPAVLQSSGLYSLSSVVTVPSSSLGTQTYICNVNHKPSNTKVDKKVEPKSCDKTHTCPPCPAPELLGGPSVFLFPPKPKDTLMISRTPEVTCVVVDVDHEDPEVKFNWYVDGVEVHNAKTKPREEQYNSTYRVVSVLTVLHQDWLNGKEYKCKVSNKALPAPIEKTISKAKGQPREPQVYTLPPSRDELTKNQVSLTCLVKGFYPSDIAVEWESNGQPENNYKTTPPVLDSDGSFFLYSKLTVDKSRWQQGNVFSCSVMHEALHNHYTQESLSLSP
light: B1 light
notes: also called Ho Ab
**Q.** For B3, which Ho/Con_2aR [1] is on record?
**A.** Its Ho/Con_2aR is 167 % of GpH7-B3/GpL16-k0 (=100).

B4: GpH7-A5/GpH7-B3 variant T335_18N/GpL16-k0 (antibody, human IgG1, kappa)
heavy 1: not shown
heavy 2: not shown
light: B1 light
notes: also called He Ab T335_18N
**Q.** How did the He/Con_2b [2] turn out when B4 was run?
**A.** Its He/Con_2b is 102 % of HeCon Ab GpH7-A5/GpH7-B3/GpL16-k0.

B5: GpH7-B3 variant P331_08L/GpL16-k0 (antibody, human IgG1, kappa)
heavy: not shown
light: B1 light
notes: also called Ho Ab
**Q.** B5 was tested. Which Ho/Con_2aR [1] did it give?
**A.** Its Ho/Con_2aR is 74.4 % of GpH7-B3/GpL16-k0 (=100).

B6: GpH7-A5/GpH7-B3 variant T335_13S/GpL16-k0 (antibody, human IgG1, kappa)
heavy 1: not shown
heavy 2: not shown
light: B1 light
notes: also called He Ab T335_13S
**Q.** With B6 as the binder, how does the He/Con_2b [2] read?
**A.** Its He/Con_2b is 102 % of HeCon Ab GpH7-A5/GpH7-B3/GpL16-k0.

B7: GpH7-B3 variant Q295_06M/GpL16-k0 (antibody, human IgG1, kappa)
heavy: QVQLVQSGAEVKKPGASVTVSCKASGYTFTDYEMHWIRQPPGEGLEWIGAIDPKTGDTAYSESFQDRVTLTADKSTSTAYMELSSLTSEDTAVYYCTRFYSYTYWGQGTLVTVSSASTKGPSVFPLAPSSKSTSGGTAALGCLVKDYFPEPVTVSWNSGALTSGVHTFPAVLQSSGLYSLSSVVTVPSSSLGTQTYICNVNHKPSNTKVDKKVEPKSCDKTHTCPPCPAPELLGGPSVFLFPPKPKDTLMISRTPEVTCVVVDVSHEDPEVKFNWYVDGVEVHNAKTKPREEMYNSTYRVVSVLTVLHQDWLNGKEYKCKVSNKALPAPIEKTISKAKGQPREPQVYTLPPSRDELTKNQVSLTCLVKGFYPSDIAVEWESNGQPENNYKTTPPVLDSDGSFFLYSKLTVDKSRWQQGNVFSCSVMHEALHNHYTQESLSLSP
light: B1 light
notes: also called Ho Ab
**Q.** How did the Ho/Con_2aR [1] turn out when B7 was run?
**A.** The Ho/Con_2aR was 93.9 % of GpH7-B3/GpL16-k0 (=100).

B8: GpH7-B3 variant S337_07I/GpL16-k0 (antibody, human IgG1, kappa)
heavy: not shown
light: B1 light
notes: also called Ho Ab
**Q.** With B8 as the binder, how does the Ho/Con_2aR [1] read?
**A.** The Ho/Con_2aR was 103 % of GpH7-B3/GpL16-k0 (=100).

B9: GpH7-B3 variant S267_03V/GpL16-k0 (antibody, human IgG1, kappa)
heavy: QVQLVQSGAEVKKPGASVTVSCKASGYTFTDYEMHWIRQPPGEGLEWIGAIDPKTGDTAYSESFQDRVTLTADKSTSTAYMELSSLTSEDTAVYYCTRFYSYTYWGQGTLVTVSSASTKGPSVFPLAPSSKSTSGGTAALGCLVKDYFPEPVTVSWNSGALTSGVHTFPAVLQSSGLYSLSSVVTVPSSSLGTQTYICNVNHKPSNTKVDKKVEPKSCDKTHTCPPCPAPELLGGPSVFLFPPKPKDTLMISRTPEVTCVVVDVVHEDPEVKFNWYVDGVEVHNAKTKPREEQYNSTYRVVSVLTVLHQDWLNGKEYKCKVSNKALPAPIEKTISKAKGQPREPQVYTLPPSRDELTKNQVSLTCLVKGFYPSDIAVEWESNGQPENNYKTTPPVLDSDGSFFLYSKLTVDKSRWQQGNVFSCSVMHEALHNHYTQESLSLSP
light: B1 light
notes: also called Ho Ab
**Q.** Which Ho/Con_2aR [1] does the source give for B9 here?
**A.** Its Ho/Con_2aR is 115 % of GpH7-B3/GpL16-k0 (=100).

B10: GpH7-B3 variant S239_14T/GpL16-k0 (antibody, human IgG1, kappa)
heavy: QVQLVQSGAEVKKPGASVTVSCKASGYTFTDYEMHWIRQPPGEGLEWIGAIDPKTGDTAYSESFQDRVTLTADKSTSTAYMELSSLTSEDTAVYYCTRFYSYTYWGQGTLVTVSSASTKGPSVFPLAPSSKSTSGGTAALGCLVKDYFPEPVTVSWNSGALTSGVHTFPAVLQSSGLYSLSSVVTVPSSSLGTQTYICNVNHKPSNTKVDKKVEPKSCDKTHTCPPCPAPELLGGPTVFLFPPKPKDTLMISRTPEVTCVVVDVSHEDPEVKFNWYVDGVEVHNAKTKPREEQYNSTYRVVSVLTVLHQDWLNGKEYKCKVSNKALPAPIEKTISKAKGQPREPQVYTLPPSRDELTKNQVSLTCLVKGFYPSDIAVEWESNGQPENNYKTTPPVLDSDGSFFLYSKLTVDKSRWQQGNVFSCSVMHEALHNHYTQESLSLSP
light: B1 light
notes: also called Ho Ab
**Q.** With B10 as the binder, how does the Ho/Con_2aR [1] read?
**A.** Its Ho/Con_2aR is 92.3 % of GpH7-B3/GpL16-k0 (=100).

B11: GpH7-A5/GpH7-B3 variant T335_20W/GpL16-k0 (antibody, human IgG1, kappa)
heavy 1: not shown
heavy 2: not shown
light: B1 light
notes: also called He Ab T335_20W
**Q.** Which He/Con_2b [2] does the source give for B11 here?
**A.** Its He/Con_2b is 104 % of HeCon Ab GpH7-A5/GpH7-B3/GpL16-k0.

B12: GpH7-B3 variant P331_10E/GpL16-k0 (antibody, human IgG1, kappa)
heavy: not shown
light: B1 light
notes: also called Ho Ab
**Q.** For B12, which Ho/Con_2aR [1] is on record?
**A.** Its Ho/Con_2aR is 94.6 % of GpH7-B3/GpL16-k0 (=100).

B13: GpH7-A5/GpH7-B3 variant S337_20W/GpL16-k0 (antibody, human IgG1, kappa)
heavy 1: not shown
heavy 2: not shown
light: B1 light
notes: also called He Ab S337_20W
**Q.** With B13 as the binder, how does the He/Con_2b [2] read?
**A.** Its He/Con_2b is 109 % of HeCon Ab GpH7-A5/GpH7-B3/GpL16-k0.

B14: GpH7-B3 variant S239_10E/GpL16-k0 (antibody, human IgG1, kappa)
heavy: not shown
light: B1 light
notes: also called Ho Ab
**Q.** With B14 as the binder, how does the Ho/Con_2aR [1] read?
**A.** The Ho/Con_2aR was 122 % of GpH7-B3/GpL16-k0 (=100).

B15: GpH7-A5/GpH7-B3 variant V266_06M/GpL16-k0 (antibody, human IgG1, kappa)
heavy 1: not shown
heavy 2: not shown
light: B1 light
notes: also called He Ab V266_06M
**Q.** For B15, which He/Con_2b [2] is on record?
**A.** The He/Con_2b was 251 % of HeCon Ab GpH7-A5/GpH7-B3/GpL16-k0.

B16: GpH7-A5/GpH7-B3 variant S337_18N/GpL16-k0 (antibody, human IgG1, kappa)
heavy 1: not shown
heavy 2: not shown
light: B1 light
notes: also called He Ab S337_18N
**Q.** With B16 as the binder, how does the He/Con_2b [2] read?
**A.** Its He/Con_2b is 103 % of HeCon Ab GpH7-A5/GpH7-B3/GpL16-k0.

B17: GpH7-B3 variant S324_06M/GpL16-k0 (antibody, human IgG1, kappa)
heavy: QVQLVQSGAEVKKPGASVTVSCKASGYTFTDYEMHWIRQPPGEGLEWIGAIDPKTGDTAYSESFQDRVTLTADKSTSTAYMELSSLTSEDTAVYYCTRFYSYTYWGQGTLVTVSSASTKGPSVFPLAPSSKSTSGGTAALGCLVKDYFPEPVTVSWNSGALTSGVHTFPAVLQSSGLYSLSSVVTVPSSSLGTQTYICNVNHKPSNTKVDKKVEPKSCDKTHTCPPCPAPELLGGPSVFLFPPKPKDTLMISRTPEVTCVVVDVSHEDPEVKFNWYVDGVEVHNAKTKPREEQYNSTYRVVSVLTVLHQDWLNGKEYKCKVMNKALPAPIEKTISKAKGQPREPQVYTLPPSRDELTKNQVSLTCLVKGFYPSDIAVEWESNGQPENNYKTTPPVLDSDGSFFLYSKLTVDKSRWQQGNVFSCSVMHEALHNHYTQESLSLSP
light: B1 light
notes: also called Ho Ab
**Q.** For B17, which Ho/Con_2aR [1] is on record?
**A.** The Ho/Con_2aR was 118 % of GpH7-B3/GpL16-k0 (=100).

B18: GpH7-A5/GpH7-B3 variant T335_15Y/GpL16-k0 (antibody, human IgG1, kappa)
heavy 1: not shown
heavy 2: not shown
light: B1 light
notes: also called He Ab T335_15Y
**Q.** With B18 as the binder, how does the He/Con_2b [2] read?
**A.** The He/Con_2b was 108 % of HeCon Ab GpH7-A5/GpH7-B3/GpL16-k0.

B19: GpH7-B3 variant S337_03V/GpL16-k0 (antibody, human IgG1, kappa)
heavy: not shown
light: B1 light
notes: also called Ho Ab
**Q.** With B19 as the binder, how does the Ho/Con_2aR [1] read?
**A.** The Ho/Con_2aR was 102 % of GpH7-B3/GpL16-k0 (=100).

B20: GpH7-A5/GpH7-B3 variant S337_16H/GpL16-k0 (antibody, human IgG1, kappa)
heavy 1: not shown
heavy 2: not shown
light: B1 light
notes: also called He Ab S337_16H
**Q.** With B20 as the binder, how does the He/Con_2b [2] read?
**A.** Its He/Con_2b is 105 % of HeCon Ab GpH7-A5/GpH7-B3/GpL16-k0.

B21: GpH7-B3 variant S324_04F/GpL16-k0 (antibody, human IgG1, kappa)
heavy: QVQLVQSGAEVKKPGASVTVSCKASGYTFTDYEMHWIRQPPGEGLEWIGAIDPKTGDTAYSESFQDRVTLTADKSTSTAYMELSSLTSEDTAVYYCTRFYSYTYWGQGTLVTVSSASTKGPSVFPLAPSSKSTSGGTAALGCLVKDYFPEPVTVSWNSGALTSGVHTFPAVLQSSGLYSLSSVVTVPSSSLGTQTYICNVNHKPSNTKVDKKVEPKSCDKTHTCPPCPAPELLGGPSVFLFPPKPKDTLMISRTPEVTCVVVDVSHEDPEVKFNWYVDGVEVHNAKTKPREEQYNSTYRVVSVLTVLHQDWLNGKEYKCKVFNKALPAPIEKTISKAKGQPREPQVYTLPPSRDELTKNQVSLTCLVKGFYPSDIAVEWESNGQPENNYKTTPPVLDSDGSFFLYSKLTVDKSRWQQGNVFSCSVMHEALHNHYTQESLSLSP
light: B1 light
notes: also called Ho Ab
**Q.** B21 was tested. Which Ho/Con_2aR [1] did it give?
**A.** Its Ho/Con_2aR is 101 % of GpH7-B3/GpL16-k0 (=100).

B22: GpH7-B3 variant S267_19Q/GpL16-k0 (antibody, human IgG1, kappa)
heavy: not shown
light: B1 light
notes: also called Ho Ab
**Q.** How did the Ho/Con_2aR [1] turn out when B22 was run?
**A.** Its Ho/Con_2aR is 110 % of GpH7-B3/GpL16-k0 (=100).

B23: GpH7-B3 variant P331_13S/GpL16-k0 (antibody, human IgG1, kappa)
heavy: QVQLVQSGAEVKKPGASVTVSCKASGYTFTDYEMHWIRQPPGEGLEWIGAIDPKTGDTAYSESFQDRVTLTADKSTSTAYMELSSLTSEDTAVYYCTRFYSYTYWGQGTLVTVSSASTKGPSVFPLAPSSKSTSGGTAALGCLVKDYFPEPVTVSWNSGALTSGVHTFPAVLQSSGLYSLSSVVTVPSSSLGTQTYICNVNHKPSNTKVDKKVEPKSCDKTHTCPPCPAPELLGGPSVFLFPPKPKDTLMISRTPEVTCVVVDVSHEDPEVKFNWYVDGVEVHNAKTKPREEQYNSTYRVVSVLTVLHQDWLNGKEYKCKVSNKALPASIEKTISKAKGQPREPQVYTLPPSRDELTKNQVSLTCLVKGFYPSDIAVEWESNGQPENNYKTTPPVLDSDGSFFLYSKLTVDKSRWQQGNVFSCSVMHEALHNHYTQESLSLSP
light: B1 light
notes: also called Ho Ab
**Q.** For B23, which Ho/Con_2aR [1] is on record?
**A.** The Ho/Con_2aR was 87.8 % of GpH7-B3/GpL16-k0 (=100).

B24: GpH7-B3 variant S337_09D/GpL16-k0 (antibody, human IgG1, kappa)
heavy: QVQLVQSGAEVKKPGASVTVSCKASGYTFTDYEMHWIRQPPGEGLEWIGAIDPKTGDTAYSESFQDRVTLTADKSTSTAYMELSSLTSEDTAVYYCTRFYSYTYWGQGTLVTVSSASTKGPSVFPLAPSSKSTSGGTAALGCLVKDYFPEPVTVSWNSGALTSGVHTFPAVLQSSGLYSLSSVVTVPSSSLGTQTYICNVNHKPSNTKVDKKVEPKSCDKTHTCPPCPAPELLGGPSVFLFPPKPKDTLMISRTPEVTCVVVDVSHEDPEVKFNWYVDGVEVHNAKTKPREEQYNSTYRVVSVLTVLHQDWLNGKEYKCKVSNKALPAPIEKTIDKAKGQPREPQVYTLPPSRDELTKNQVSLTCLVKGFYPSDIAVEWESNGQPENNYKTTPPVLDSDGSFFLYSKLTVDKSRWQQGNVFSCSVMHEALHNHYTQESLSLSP
light: B1 light
notes: also called Ho Ab
**Q.** How did the Ho/Con_2aR [1] turn out when B24 was run?
**A.** The Ho/Con_2aR was 114 % of GpH7-B3/GpL16-k0 (=100).

B25: GpH7-B3 variant P331_07I/GpL16-k0 (antibody, human IgG1, kappa)
heavy: not shown
light: B1 light
notes: also called Ho Ab
**Q.** How did the Ho/Con_2aR [1] turn out when B25 was run?
**A.** Its Ho/Con_2aR is 67 % of GpH7-B3/GpL16-k0 (=100).

B26: GpH7-B3 variant S337_12R/GpL16-k0 (antibody, human IgG1, kappa)
heavy: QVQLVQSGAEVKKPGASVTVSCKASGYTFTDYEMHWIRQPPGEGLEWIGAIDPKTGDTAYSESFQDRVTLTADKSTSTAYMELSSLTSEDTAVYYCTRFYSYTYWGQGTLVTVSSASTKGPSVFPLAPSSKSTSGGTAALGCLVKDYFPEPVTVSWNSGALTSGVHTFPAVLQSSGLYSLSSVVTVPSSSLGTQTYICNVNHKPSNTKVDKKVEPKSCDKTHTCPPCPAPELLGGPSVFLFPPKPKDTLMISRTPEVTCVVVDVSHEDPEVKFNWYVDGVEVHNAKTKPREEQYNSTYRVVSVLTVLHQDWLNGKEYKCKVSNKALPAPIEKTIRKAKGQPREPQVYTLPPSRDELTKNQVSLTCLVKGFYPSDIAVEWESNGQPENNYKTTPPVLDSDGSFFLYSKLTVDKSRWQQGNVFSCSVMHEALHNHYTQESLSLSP
light: B1 light
notes: also called Ho Ab
**Q.** B26 was tested. Which Ho/Con_2aR [1] did it give?
**A.** The Ho/Con_2aR was 100 % of GpH7-B3/GpL16-k0 (=100).
